The target of test [1] is T1, CCL5_HUMAN (human), P13501.
T1 chain: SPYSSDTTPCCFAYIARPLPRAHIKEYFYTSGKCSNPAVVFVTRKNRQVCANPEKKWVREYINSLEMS
The test is described as follows: BLI. The note with it: other; chains chain; remark: other sources report otherwise.

In test [2] the target is T1, CCL5_HUMAN (human), P13501. Nature of the test: microscale thermophoresis, AlexaFluor 647 labelled chemokine. The note with it: remark: other sources report otherwise.
The target in test [3] is CXCL10_HUMAN (human), P02778. The description is as above. The note with it: remark: other sources report otherwise.
Sequence of CXCL10_HUMAN (human), P02778 (P02778 22-98 limits assumed): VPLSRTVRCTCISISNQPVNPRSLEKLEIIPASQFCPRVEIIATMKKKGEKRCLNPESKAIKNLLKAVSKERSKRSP
Test [4] has as its target T2, CX3CL1_HUMAN (human), P78423.
T2 chain: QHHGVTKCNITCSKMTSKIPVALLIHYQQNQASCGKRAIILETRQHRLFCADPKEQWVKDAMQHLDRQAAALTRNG
Described as above. The following applies: remark: other sources report otherwise.

Test [5] has as its target CXCL8_HUMAN (human), P10145. Described as above. The note with it: remark: other sources report otherwise.
Test [6] addresses CXCL12_HUMAN (human), P48061. Described as above. The note with it: remark: other sources report otherwise.
The target of test [7] is T3, CCL19_HUMAN (human), Q99731.
T3 chain: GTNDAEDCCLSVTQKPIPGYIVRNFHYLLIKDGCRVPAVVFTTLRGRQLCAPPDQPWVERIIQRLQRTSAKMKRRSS
The test is described as above. The following applies: remark: other sources report otherwise.

The target of test [8] is CCL20_HUMAN (human), P78556. The test is described as above. The note with it: remark: other sources report otherwise.
Sequence of CCL20_HUMAN (human), P78556 (P78556 27-96 limits assumed): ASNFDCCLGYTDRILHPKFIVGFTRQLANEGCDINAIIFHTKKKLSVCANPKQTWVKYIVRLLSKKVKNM

Changes are numbered by the printed parent chain.

Sequence of CXCL12_HUMAN (human), P48061 (P48061 22-89 limits assumed): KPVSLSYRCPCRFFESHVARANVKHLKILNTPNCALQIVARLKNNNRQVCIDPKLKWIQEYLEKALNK
Sequence of CXCL8_HUMAN (human), P10145 (P10145 28-99 limits assumed): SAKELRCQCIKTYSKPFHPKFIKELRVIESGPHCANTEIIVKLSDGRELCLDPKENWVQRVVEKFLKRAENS

B1: P974_AMBCA, A0A023FDY8 22-118 (protein)
chain: ENTQQEEQDYDYGTDTCPFPVLANKTNKAKFVGCHQKCNGGDQKLTDGTACYVVERKVWDRMTPMLWYECPLGECKNGVCEDLRKKEDCRKGNGEEK
Consider B1, for which the Kd in test [1] is 160 nM.

B2: P546_AMBCA, A0A023FBW7 22-118 (protein)
chain: B1 chain with Q8E, E69S, D88E
As for B2, the Kd is 128 nM in test [2]; 104 nM in test [3]; 140 nM in test [4]; 56 nM in test [5]; 71 nM in test [6]; 367 nM in test [7]. Also, the Kd in test [8] amounted to 232 nM.

The values are drawn from patent US20220175942A1.
